Earlier results, collected in patent publication US9545449B2, “Site-specific labeling and targeted delivery of proteins for the treatment of cancer” (Advanced Proteome Therapeutics Inc., priority 2012, dated 2017).

Details: binding to phosphatidylserine; from Thiagarajan and Tait, J. Biol. Chem. 265:17420-17423 (1990); read-out: Kd (affinity for PS)

Kd: 1.7 nM
B1: Annexin V: human annexin V (SEQ ID NO:1) (Accession P08758); phosphatidylserine-binding protein (protein, listed as Homo sapiens)
chain: MAQVLRGTVTDFPGFDERADAETLRKAMKGLGTDEESILTLLTSRSNAQRQEISAAFKTLFGRDLLDDLKSELTGKFEKLIVALMKPSRLYDAYELKHALKGAGTNEKVLTEIIASRTPEELRAIKQVYEEEYGSSLEDDVVGDTSGYYQRMLVVLLQANRDPDAGIDEAQVEQDAQALFQAGELKWGTDEEKFITIFGTRSVSHLRKVFDKYMTISGFQIEETIDRETSGNLEQLLLAVVKSIRSIPAYLAETLYYAMKGAGTDDHTLIRVMVSRSEIDLFNIRKEFRKNFATSLYSMIKGDTSGDYKKALLLLCGEDD
